Measured values: US20240182551A1 (published 2024)

B1: Fab CC9.3 (Fab, V domains shown)
VH: QVQLQESGPGLVKPSETLSLTCTVSGGSIRSDFWSWIRQFPGKGLEWIGYIYYSGSTNYNPSLESRVTISVDTSKNEFSLKLNYVTAADTAIYYCARETRWNWLDSWGQGTLVTVSS
VL: DIVMTQSPDSLAVSLGERASINCKSSQTISYISNNKNYLAWYQQKPGQPPRLLIYWASTRESGVPDRFSGGGFGTDFTLTISSLQAEDVAVYYCQQYFNTPWTFGQGTKVEIK
B2: CC9.3 (IgG) (antibody, V domains shown)
VH: B1 VH
VL: B1 VL
B3: Fab CC9.2 (Fab, V domains shown)
VH: EVQLVESGGGLVQPGRSLRLSCVAPGFTLGGYGMHWVRQAPGKGLEWVGLISYDGSVQKYGSSVKGRFTISKDNSKNTLYLEMNSLRADDTAVYFCVKGASLGDNWGQGTLVTVSS
VL: EIVMTQSPLSLPVTLGQPASISCRSSQSLVYSDGDTYMSWFHQRPGQSPRRLIYKVSNRDFGVPDRFSGSGSGTDFTLKISRVEAEDVGVYYCMQGTHWPYTFGPGTKVEIK
B4: CC9.2 (IgG) (antibody, V domains shown)
VH: B3 VH
VL: B3 VL
B5: Fab CC40.8 (Fab, V domains shown)
VH: EVQLLESGGGLVQPGGSLRLSCAASGFTFSSYVMTWARQAPGKGLEWVSAISGTGYTYYADSVKGRFTVSRDNSKNTLFLQMSSLRAEDTAVYYCAITMAPVVWGQGTTVTVSS
VL: SYELTQPPSVSVSPGQTARITCSGDALPKRYAYWYQQKSGQAPILVIYEDKKRPSGIPERLSGSKSGTVATLTISGAQVEDEADYYCYSTDSSGNHAVFGGGTQLTVL
B6: CC40.8 (IgG) (antibody, V domains shown)
VH: B5 VH
VL: B5 VL
B7: CC9.3 Fab (Fab, V domains shown)
VH: B1 VH
VL: B1 VL
B8: CC9.3 IgG (antibody, V domains shown)
VH: B1 VH
VL: B1 VL
B9: CC9.2 Fab (Fab, V domains shown)
VH: B3 VH
VL: B3 VL
B10: CC9.2 IgG (antibody, V domains shown)
VH: B3 VH
VL: B3 VL
B11: CC40.8 IgG (antibody, V domains shown)
VH: B5 VH
VL: B5 VL
B12: CC40.8 Fab (Fab, V domains shown)
VH: B5 VH
VL: B5 VL

Target: T1, HCoV-HKU1 recombinant soluble S ectodomain protein (prefusion-stabilized trimer) (HCoV-HKU1)
T1 chain: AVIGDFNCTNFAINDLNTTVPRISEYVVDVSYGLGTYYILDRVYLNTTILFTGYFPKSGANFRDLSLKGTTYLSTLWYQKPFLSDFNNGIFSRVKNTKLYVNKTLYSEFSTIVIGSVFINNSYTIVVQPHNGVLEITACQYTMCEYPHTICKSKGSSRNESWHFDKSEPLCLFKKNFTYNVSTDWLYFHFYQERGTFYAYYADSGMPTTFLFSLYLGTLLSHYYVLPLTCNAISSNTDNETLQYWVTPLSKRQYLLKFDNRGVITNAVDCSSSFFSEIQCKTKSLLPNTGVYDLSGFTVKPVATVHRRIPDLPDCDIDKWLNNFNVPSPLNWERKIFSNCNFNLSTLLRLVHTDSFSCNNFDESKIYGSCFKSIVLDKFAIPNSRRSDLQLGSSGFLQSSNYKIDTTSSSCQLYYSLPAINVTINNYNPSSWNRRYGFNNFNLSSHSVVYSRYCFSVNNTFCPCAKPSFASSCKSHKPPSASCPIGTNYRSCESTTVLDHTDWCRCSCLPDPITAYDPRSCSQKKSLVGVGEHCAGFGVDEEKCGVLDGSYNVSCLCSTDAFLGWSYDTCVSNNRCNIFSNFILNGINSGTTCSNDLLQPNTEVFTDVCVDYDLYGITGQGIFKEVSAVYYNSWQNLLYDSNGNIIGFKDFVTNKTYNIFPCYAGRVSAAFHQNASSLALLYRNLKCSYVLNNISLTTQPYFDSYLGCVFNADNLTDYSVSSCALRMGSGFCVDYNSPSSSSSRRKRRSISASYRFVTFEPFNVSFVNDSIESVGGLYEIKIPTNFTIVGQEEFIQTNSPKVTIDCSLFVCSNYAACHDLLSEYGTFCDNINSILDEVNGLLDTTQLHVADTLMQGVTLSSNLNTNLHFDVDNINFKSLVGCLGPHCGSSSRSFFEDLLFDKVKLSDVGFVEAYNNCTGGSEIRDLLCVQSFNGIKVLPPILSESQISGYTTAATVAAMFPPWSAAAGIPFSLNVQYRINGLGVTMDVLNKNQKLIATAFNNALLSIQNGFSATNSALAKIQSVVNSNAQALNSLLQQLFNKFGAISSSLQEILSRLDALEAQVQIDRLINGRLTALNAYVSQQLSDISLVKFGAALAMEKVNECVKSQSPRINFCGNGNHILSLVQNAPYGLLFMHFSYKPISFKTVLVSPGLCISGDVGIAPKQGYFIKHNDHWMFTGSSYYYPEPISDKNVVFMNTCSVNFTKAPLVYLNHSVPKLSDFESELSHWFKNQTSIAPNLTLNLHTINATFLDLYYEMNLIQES
Test: BLI

Binder | Kd [nM]
B1 | < 1
B2 | < 1
B3 | < 1
B4 | < 1
B5 | < 1
B6 | < 1

These binders were tested against SARS-CoV-2 S (SARS-CoV-2, UniProt P0DTC2 1-1208) (assay: BLI).

Binder | Kd [nM]
B7 | 112
B8 | 2
B9 | 1680
B10 | 16
B11 | 1
B12 | 5
